From US20260201391
Where two headings read alike, the source gives them in different places.

System: thrombin

Substance	binding signal (fold higher Kd than TBV-08) (Kd of TBV-08 stated as 300-fold lower than Bock-15)	binding signal (fold higher Kd than TBV-08) (Kd of TBV-08 stated as 200-fold lower than Tasset-29)
Bock-15	300	–
Tasset-29	–	200
